The assay concerns the target T1, interleukin 2 receptor beta (IL-2Rβ) (UniProt P14784 27-240, limits assumed).
T1 construct: also called CD122
T1 sequence (looked up): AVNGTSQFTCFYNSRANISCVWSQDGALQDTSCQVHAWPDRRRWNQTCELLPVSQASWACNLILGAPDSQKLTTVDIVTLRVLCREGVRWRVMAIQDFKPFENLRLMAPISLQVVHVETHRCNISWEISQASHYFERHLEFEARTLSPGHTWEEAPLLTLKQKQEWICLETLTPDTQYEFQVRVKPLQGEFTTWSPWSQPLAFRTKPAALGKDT
Put plainly: method not stated; Kd column of the H9 substitution matrix; target not given.

In patent US20190062395A1 (MEDICENNA THERAPEUTICS, published 2019) one finds Kd data, which are given here for one molecule.

B1: H9 (IL-2 mutein having the amino acid substitutions L80F, R81D, L85V, I86V, and I92F, numbered in accordance with wild-type human IL-2 of SEQ ID NO:2) (ligand)
chain: APTSSSTKKTQLQLEHLLLDLQMILNGINNYKNPKLTRMLTFKFYMPKKATELKHLQCLEEELKPLEEVLNLAQSKNFHFDPRDVVSNINVFVLELKGSETTFMCEYADETATIVEFLNRWITFCQSIISTLT
notes: also called IL-2 superkine
For the molecule B1, the dissociation constant (Kd) was 1.3 nM.
